Biological target: the molecule itself
Experiment: single-molecule photobleaching subunit capture

Protein | binding result
CLC-ec1 'WT' background (C85A/H234C) treated with glutaraldehyde (natural protein, Cy5-maleimide on H234C; cross-linked with glutaraldehyde (residues not stated)) MKTDTPSLETPQAARLRRRQLIRQLLERDKTPLAILFMAAVVGTLVGLAAVAFDKGVAWLQNQRMGALVHTADNYPLLLTVAFLASAVLAMFGYFLVRKYAPEAGGSGIPEIEGALEDQRPVRWWRVLPVKFFGGLGTLGGGMVLGREGPTVQIGGNIGRMVLDIFRLKGDEARHTLLATGAAAGLAAAFNAPLAGILFIIEEMRPQFRYTLISIKAVFIGVIMSTIMYRIFNCEVALIDVGKLSDAPLNTLWLYLILGIIFGIFGPIFNKWVLGMQDLLHRVHGGNITKWVLMGGAIGGLCGLLGFVAPATSGGGFNLIPIATAGNFSMGMLVFIFVARVITTLLCFSSGAPGGIFAPMLALGTVLGTAFGMVAVELFPQYHLEAGTFAIAGMGALLAASIRAPLTGIILVLEMTDNYQLILPMIITGLGATLLAQFTGGKPLYSAILARTLAKQEAEQLARSKAASASENT | binds
CLC-ec1 R230C/L249C on the 'WT' background (C85A/H234C), disulfide cross-linked (natural protein) MKTDTPSLETPQAARLRRRQLIRQLLERDKTPLAILFMAAVVGTLVGLAAVAFDKGVAWLQNQRMGALVHTADNYPLLLTVAFLASAVLAMFGYFLVRKYAPEAGGSGIPEIEGALEDQRPVRWWRVLPVKFFGGLGTLGGGMVLGREGPTVQIGGNIGRMVLDIFRLKGDEARHTLLATGAAAGLAAAFNAPLAGILFIIEEMRPQFRYTLISIKAVFIGVIMSTIMYCIFNCEVALIDVGKLSDAPCNTLWLYLILGIIFGIFGPIFNKWVLGMQDLLHRVHGGNITKWVLMGGAIGGLCGLLGFVAPATSGGGFNLIPIATAGNFSMGMLVFIFVARVITTLLCFSSGAPGGIFAPMLALGTVLGTAFGMVAVELFPQYHLEAGTFAIAGMGALLAASIRAPLTGIILVLEMTDNYQLILPMIITGLGATLLAQFTGGKPLYSAILARTLAKQEAEQLARSKAASASENT | binds

Reference: doi:10.1101/2022.08.03.502687 (bioRxiv, 2022)
